From patent publication US11278600B2, “Human alpha-galactosidase variants” (Codexis, Inc., priority 2014, dated 2022)
Residue numbers refer to the chain shown, from its start.

B1: 313 (protein)
chain: LDNGLARTPTMGWLHWERFMCNLDCQEEPDSCISEKLFMEMAELMVSEGWKDAGYEYLCIDDCWMAPQRDSEGRLQADPQRFPHGIRQLANYVHSKGLKFGIYADVGNKTCAGFPGSFGYYDIDSQTFADWGVDLLKFDGCYCDSLENLADGYKHMSLALNRTGRSIVYSCEWPLYMWPFQKPNYTEIRQYCNHWRNFADIDDSWASVKSILDWTSFNQEKIVDVAGPGGWNDPDMLVIGNFGLSWNQQVTQMALWAIMAAPLFMSNDLRHISPQAKALLQDKDVIAINQDPLGKQGYQLRKGDNFEVWERPLSGLAWAVAIINRQEIGGPRSYTIAVASLGGGVACNPACFITQLLPVKRKLGFYNWTSRLKSHINPTGTVLLQLENTMQMSLKDLL
modifications: Synthetic Polypeptide sequence of Variant No. 313 of mature Human GLA
B2: 317 (protein)
chain: B1 chain with S125A, K302Q, I322V, G343D, F365L
modifications: Synthetic Polypeptide sequence of Variant No. 317 of mature Human GLA
B3: 318 (protein)
chain: B1 chain with S125A, K221T, K302Q, I322V, G343K, I376V
modifications: Synthetic Polypeptide sequence of Variant No. 318 of mature Human GLA
B4: 315 (protein)
chain: B1 chain with S125A, K221R, I322V, G343K, F365L, I376V
modifications: Synthetic Polypeptide sequence of Variant No. 315 of mature Human GLA
B5: 316 (protein)
chain: B1 chain with S125A, K302Q, I322V, G343D
modifications: Synthetic Polypeptide sequence of Variant No. 316 of mature Human GLA
B6: 311 (protein)
chain: LDNGLARTPTMGWLHWERFMCNLDCQEEPDSCISEKLFMEMAELMVSEGWKDAGYEYLCIDDCWMAPQRDSEGRLQADPQRFPHGIRQLANYVHSIGLKLGIYADVGNKTCAGFPGSFGYYDIDAQTFADWGVDLLKFDGCYCDSLENLADGYKHMSLALNRTGRSIVYSCEWPLYMWPFQKPNYTEIRQYCNHWRNFADIDDSWASIKSILDWTSFNQERIVDVAGPGGWNDPDMLVIGNFGLSWDQQVTQMALWAIMAAPLFMSNDLRHISPQAKALLQDKDVIAINQDPLGKQGYQLRKGDNFEVWERPLSGDAWAVAIINRQEIGGPRSYTIPVASLGKGVACNPGCFITQLLPVKRKLGFYNWSSRLKSHINPTGTVLLQLENTMQMSLKDLL
modifications: Synthetic Polypeptide sequence of Variant No. 311 of mature Human GLA
B7: 322 (protein)
chain: B1 chain with S125A, V208I, K221T, G343D
modifications: Synthetic Polypeptide sequence of Variant No. 322 of mature Human GLA
B8: 321 (protein)
chain: B1 chain with S125A, V208I, N247D, K302Q
modifications: Synthetic Polypeptide sequence of Variant No. 321 of mature Human GLA
B9: 312 (protein)
chain: B6 chain with K362Q, S369T
modifications: Synthetic Polypeptide sequence of Variant No. 312 of mature Human GLA
B10: 319 (protein)
chain: B1 chain with S125A, V208I, K221R, K302Q, G343K, I376V
modifications: Synthetic Polypeptide sequence of Variant No. 319 of mature Human GLA
B11: 320 (protein)
chain: B1 chain with S125A, V208I, K221R, N247D, G343K
modifications: Synthetic Polypeptide sequence of Variant No. 320 of mature Human GLA
B12: 314 (protein)
chain: B1 chain with S125A, K221R, N247D, I322V, G343D, I376V
modifications: Synthetic Polypeptide sequence of Variant No. 314 of mature Human GLA

test: HTP-analysis of supernatants pretreated with bovine serum (MUGal hydrolysis); type: biochemical; details: activity of the variant/activity of Rd3BB (SEQ ID NO: 13), yeast culture supernatant
In short: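 Yeast INVSc1 culture supernatants containing secreted GLA variants were mixed with bovine serum (20:80) and held 1 h at 37° C. Serum-treated samples then reacted with MUGal (4 mM stock) in citrate/McIlvaine buffer (pH 4.3/4.8) for 180 min at 37° C., were quenched with sodium carbonate, and read by fluorescence (Ex 355, Em 448 nm).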

Row | Molecule | Relative Activity of GLA Variants After Challenge with Serum
1 | B1 | + (+ = 0.5 to 1.5 relative activity over Rd3BB (SEQ ID NO: 13))
2 | B2 | − (− = <0.5 relative activity to Rd3BB (SEQ ID NO: 13))
3 | B3 | + (+ = 0.5 to 1.5 relative activity over Rd3BB (SEQ ID NO: 13))
4 | B4 | + (+ = 0.5 to 1.5 relative activity over Rd3BB (SEQ ID NO: 13))
5 | B5 | + (+ = 0.5 to 1.5 relative activity over Rd3BB (SEQ ID NO: 13))
6 | B6 | + (+ = 0.5 to 1.5 relative activity over Rd3BB (SEQ ID NO: 13))
7 | B7 | + (+ = 0.5 to 1.5 relative activity over Rd3BB (SEQ ID NO: 13))
8 | B8 | + (+ = 0.5 to 1.5 relative activity over Rd3BB (SEQ ID NO: 13))
9 | B9 | +++ (+++ = >2.5 relative activity over Rd3BB (SEQ ID NO: 13))
10 | B10 | + (+ = 0.5 to 1.5 relative activity over Rd3BB (SEQ ID NO: 13))
11 | B11 | + (+ = 0.5 to 1.5 relative activity over Rd3BB (SEQ ID NO: 13))
12 | B12 | + (+ = 0.5 to 1.5 relative activity over Rd3BB (SEQ ID NO: 13))

test: HTP-analysis of supernatants pretreated with acid (MUGal hydrolysis); type: biochemical; details: challenge at pH 4.0; activity of the variant/activity of Rd3BB (SEQ ID NO: 13); yeast culture supernatant
In short: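 Fluorescence of MUGal hydrolysis (Ex. 355 nm, Em. 448 nm) is read after sodium carbonate quench. The enzyme source is INVSc1 yeast culture supernatant, first exposed to pH 3.3-4.3 McIlvaine buffer at 37° C. for 1-3 h, then reacted at pH 4.8 for 30-180 minutes.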

Row | Molecule | Relative Activity of GLA Variants After Challenge at pH 4.0
13 | B1 | + (+ = 0.5 to 1.5 relative activity over Rd3BB (SEQ ID NO: 13))
14 | B2 | + (+ = 0.5 to 1.5 relative activity over Rd3BB (SEQ ID NO: 13))
15 | B3 | + (+ = 0.5 to 1.5 relative activity over Rd3BB (SEQ ID NO: 13))
16 | B4 | + (+ = 0.5 to 1.5 relative activity over Rd3BB (SEQ ID NO: 13))
17 | B5 | + (+ = 0.5 to 1.5 relative activity over Rd3BB (SEQ ID NO: 13))
18 | B6 | + (+ = 0.5 to 1.5 relative activity over Rd3BB (SEQ ID NO: 13))
19 | B7 | + (+ = 0.5 to 1.5 relative activity over Rd3BB (SEQ ID NO: 13))
20 | B8 | ++ (++ = >1.5 to 2.5 relative activity over Rd3BB (SEQ ID NO: 13))
21 | B9 | +++ (+++ = >2.5 relative activity over Rd3BB (SEQ ID NO: 13))
22 | B10 | + (+ = 0.5 to 1.5 relative activity over Rd3BB (SEQ ID NO: 13))
23 | B11 | + (+ = 0.5 to 1.5 relative activity over Rd3BB (SEQ ID NO: 13))
24 | B12 | ++ (++ = >1.5 to 2.5 relative activity over Rd3BB (SEQ ID NO: 13))

test: HTP-analysis of yeast culture supernatants, no challenge (MUGal hydrolysis); type: biochemical; details: activity of the variant/activity of Rd3BB (SEQ ID NO: 13), yeast culture supernatant
In short: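 Activity read as 4-methylumbelliferyl α-D-galactopyranoside hydrolysis: fluorescence (355/448 nm) after sodium carbonate stop, following 30-180 min at 37° C with 2 mM MUGal stock at pH 4.6–4.8. Enzyme source is unchallenged culture supernatant of INVSc1 yeast expressing GLA variants, grown 66-84 h at 30° C.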

Row | Molecule | Relative Activity of GLA Variants After No Challenge (NC)
25 | B1 | + (+ = 0.5 to 1.5 relative activity over Rd3BB (SEQ ID NO: 13))
26 | B2 | + (+ = 0.5 to 1.5 relative activity over Rd3BB (SEQ ID NO: 13))
27 | B3 | + (+ = 0.5 to 1.5 relative activity over Rd3BB (SEQ ID NO: 13))
28 | B4 | + (+ = 0.5 to 1.5 relative activity over Rd3BB (SEQ ID NO: 13))
29 | B5 | + (+ = 0.5 to 1.5 relative activity over Rd3BB (SEQ ID NO: 13))
30 | B6 | + (+ = 0.5 to 1.5 relative activity over Rd3BB (SEQ ID NO: 13))
31 | B7 | + (+ = 0.5 to 1.5 relative activity over Rd3BB (SEQ ID NO: 13))
32 | B8 | ++ (++ = >1.5 to 2.5 relative activity over Rd3BB (SEQ ID NO: 13))
33 | B9 | ++ (++ = >1.5 to 2.5 relative activity over Rd3BB (SEQ ID NO: 13))
34 | B10 | + (+ = 0.5 to 1.5 relative activity over Rd3BB (SEQ ID NO: 13))
35 | B11 | + (+ = 0.5 to 1.5 relative activity over Rd3BB (SEQ ID NO: 13))
36 | B12 | + (+ = 0.5 to 1.5 relative activity over Rd3BB (SEQ ID NO: 13))

test: HTP-analysis of supernatants pretreated with base (MUGal hydrolysis); type: biochemical; details: challenge at pH 8.2; activity of the variant/activity of Rd3BB (SEQ ID NO: 13); yeast culture supernatant
In short: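 GLA variants secreted from yeast INVSc1; culture supernatants pre-incubated with McIlvaine buffer pH 7.0–8.2 or 200 mM bicarbonate pH 9.1–9.7 at 37° C. for 1–18 h. Residual activity: MUGal (4 mM stock) hydrolysis at pH 4.3–4.8, 37° C., 30–180 min, carbonate quench; fluorescence Ex 355/Em 448 nm.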

Row | Molecule | Relative Activity of GLA Variants After Challenge at pH 8.2
37 | B1 | − (− = <0.5 relative activity to Rd3BB (SEQ ID NO: 13))
38 | B2 | − (− = <0.5 relative activity to Rd3BB (SEQ ID NO: 13))
39 | B3 | ++ (++ = >1.5 to 2.5 relative activity over Rd3BB (SEQ ID NO: 13))
40 | B4 | + (+ = 0.5 to 1.5 relative activity over Rd3BB (SEQ ID NO: 13))
41 | B5 | + (+ = 0.5 to 1.5 relative activity over Rd3BB (SEQ ID NO: 13))
42 | B6 | ++ (++ = >1.5 to 2.5 relative activity over Rd3BB (SEQ ID NO: 13))
43 | B7 | ++ (++ = >1.5 to 2.5 relative activity over Rd3BB (SEQ ID NO: 13))
44 | B8 | +++ (+++ = >2.5 relative activity over Rd3BB (SEQ ID NO: 13))
45 | B9 | +++ (+++ = >2.5 relative activity over Rd3BB (SEQ ID NO: 13))
46 | B10 | + (+ = 0.5 to 1.5 relative activity over Rd3BB (SEQ ID NO: 13))
47 | B11 | + (+ = 0.5 to 1.5 relative activity over Rd3BB (SEQ ID NO: 13))
48 | B12 | ++ (++ = >1.5 to 2.5 relative activity over Rd3BB (SEQ ID NO: 13))
